Test results as given in patent US20170051047A1.

Columns and labels:
[1] = target: Clostridium difficile toxin A (whole toxin A) (Clostridium difficile) (UniProt P16154); assay: cell-based or functional assay
[2] = target: Clostridium difficile toxin A (whole toxin A) (Clostridium difficile) (UniProt P16154)

CDA1 (Merck anti-toxin A mAb used as a control) (antibody)
IC50, in vitro toxin A neutralization on Vero cells [1]: 0.347 µg/mL | Kd [2]: 0.624 nM | koff [2]: 0.000291 s⁻¹ | kon [2]: 480000 M⁻¹ s⁻¹
